Literature values as cited in paper PMC5643527, “In vivo imaging of lung inflammation with neutrophil-specific ^68Ga nano-radiotracer” (Scientific Reports, 2017).

What was measured:
[1] = target: formyl peptide receptor 1 (Homo sapiens) (UniProt P21462)
[2] = target: formyl peptide receptor 1 (FPR-1); conditions: antagonist of FPR-1; read-out: binding affinity (Kd)
Experimental: A particularly interesting compound is the peptide N-cinnamoyl-F-(D)L-F-(D)L-F (cFLFLF), an antagonist of formyl peptide receptor 1 (FPR-1). The very high binding affinity of cFLFLF (Kd = 2 nM) is the main reason for its use in neutrophil-specific probes for PET and optical fluorescence[7],[8],[10]. However, the high hydrophobicity of cFLFLF produces very poor target-to-background ratios. This serious limitation is the reason why to date the amount of radiotracer reaching the inflammation site is below 1% (expressed as the % of injected dose per mass of the organ)[7],[10]. || Inflammation is a central feature of many clinical conditions and can be broadly classified as acute or chronic. Acute inflammation typically occurs over a timescale of minutes to hours, whereas chronic inflammation can develop over several days to months. The predominant cell type in acute inflammation is the neutrophil, whereas chronic inflammation features a greater variety of cell types.

Sequence of UniProt P21462 (P21462 whole entry): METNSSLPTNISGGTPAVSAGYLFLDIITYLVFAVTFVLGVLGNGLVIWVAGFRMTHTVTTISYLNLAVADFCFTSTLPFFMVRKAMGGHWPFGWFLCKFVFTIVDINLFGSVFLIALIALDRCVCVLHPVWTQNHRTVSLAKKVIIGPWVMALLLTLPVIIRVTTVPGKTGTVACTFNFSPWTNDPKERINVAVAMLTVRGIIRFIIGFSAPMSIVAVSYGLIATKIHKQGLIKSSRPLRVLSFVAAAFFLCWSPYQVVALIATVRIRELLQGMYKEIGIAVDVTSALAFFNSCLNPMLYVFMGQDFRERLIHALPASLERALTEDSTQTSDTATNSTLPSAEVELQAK

Kd [1] [nM] | Kd [2] [nM] | Substance
2 |  | cFLFLF (N-cinnamoyl-F-(D)L-F-(D)L-F)
 | 2 | N-cinnamoyl-F-(D)L-F-(D)L-F [cFLFLF]
